Laboratory results as given in patent US20100061991A1.

Molecular target: human DCIR (dendritic cell immunoreceptor), full length, isotype 1 (human) (UniProt Q9UMR7)
Assay: cell-based or functional assay

Sequence of UniProt Q9UMR7 (Q9UMR7 whole entry): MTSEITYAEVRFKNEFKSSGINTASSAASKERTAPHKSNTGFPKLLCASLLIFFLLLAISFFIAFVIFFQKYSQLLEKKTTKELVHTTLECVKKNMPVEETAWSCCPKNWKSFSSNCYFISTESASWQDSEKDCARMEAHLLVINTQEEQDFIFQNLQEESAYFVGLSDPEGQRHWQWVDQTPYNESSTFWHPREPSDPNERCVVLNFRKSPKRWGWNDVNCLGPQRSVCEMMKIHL

“HIV-1 NL4-3balenv virions (R5-tropic; NL4-3 with the env gene of HIV-1 Bal)” gave a reduction in virus transfer from IM-MDDC to CD4+ T cells after DCIR-specific siRNA, in absence of EFV of 30% and a reduction in virus transfer from IM-MDDC to CD4+ T cells after DCIR-specific siRNA, in cells treated with EFV of 40%.
